From patent US6635751B1, “Isolated nucleic acids encoding activated and suppressive forms of ATF6” (HSP Research Institute, Inc., priority 1998, dated 2003)

B1: CREB-RP(81-389): CREB-RP deletion mutant lacking transcription-activating domain (protein, UniProt Q99941 81-389, looked up, fragment)
chain: IFPDLQVKSEPSSPCSSSSLSSESSRLSTEPSSEALGVGEVLHVKTESLAPPLCLLGDDPTSSFETVQINVIPTSDDSSDVQTKIEPVSPCSSVNSEASLLSADSSSQAFIGEEVLEVKTESLSPSGCLLWDVPAPSLGAVQISMGPSLDGSSGKALPTRKPPLQPKPVVLTTVPMPSRAVPPSTTVLLQSLVQPPPVSPVVLIQGAIRVQPEGPAPSLPRPERKSIVPAPMPGNSCPPEVDAKLLKRQQRMIKNRESACQSRRKKKEYLQGLEARLQAVLADNQQLRRENAALRRRLEALLAENSELK
B2: CREB-RP(151-389): CREB-RP deletion mutant lacking transcription-activating domain (protein, UniProt Q99941 151-389, looked up, fragment)
chain: VIPTSDDSSDVQTKIEPVSPCSSVNSEASLLSADSSSQAFIGEEVLEVKTESLSPSGCLLWDVPAPSLGAVQISMGPSLDGSSGKALPTRKPPLQPKPVVLTTVPMPSRAVPPSTTVLLQSLVQPPPVSPVVLIQGAIRVQPEGPAPSLPRPERKSIVPAPMPGNSCPPEVDAKLLKRQQRMIKNRESACQSRRKKKEYLQGLEARLQAVLADNQQLRRENAALRRRLEALLAENSELK
B3: CREB-RP(1-389): CREB-RP amino acids 1st to 389th, corresponding to p60CREB-RP, activated form (protein)
chain: AELMLLSEIADPTRFFTDNLLSPEDWDSTLYSGLDEVAEEQTQLFRCPEQDVPFDGSSLDVGMDVSPSEPPWELLPIFPDLQVKSEPSSPCSSSSLSSESSRLSTEPSSEALGVGEVLHVKTESLAPPLCLLGDDPTSSFETVQINVIPTSDDSSDVQTKIEPVSPCSSVNSEASLLSADSSSQAFIGEEVLEVKTESLSPSGCLLWDVPAPSLGAVQISMGPSLDGSSGKALPTRKPPLQPKPVVLTTVPMPSRAVPPSTTVLLQSLVQPPPVSPVVLIQGAIRVQPEGPAPSLPRPERKSIVPAPMPGNSCPPEVDAKLLKRQQRMIKNRESACQSRRKKKEYLQGLEARLQAVLADNQQLRRENAALRRRLEALLAENSELKLGSGNRKVVCIMVFLLFIAFNFGPVSISEPPSAPISPRMNKGEPQPRRHLLGFSEQEPVQGVEPLQGSSQGPKEPQPSPTDQPSFSNLTAFPGGAKELLLRDLDQLFLSSDCRHFNRTESLRLADELSGWVQRHQRGRRKIPQRAQERQKSQPRKKSPPVKAVPIQPPGPPERDSVGQLQLYRHPDRSQPAFLDAIDRREDTFYVVSFRRGHLLLPAISHNKTSRPKMSLVMPAMAPNETLSGRGAPGDYEEMMQIECEVMDTRVIHIKTSTVPPSLRKQPSPTPGNATGGPLPVSAASQAHQASHQPLYLNHP

How the values were obtained:
HeLa cells = assay: Immunoblotting time course of p50ATF6 and GRP78 in treated HeLa cells; assay type: cell-based, human; details: 7 μM A23187 or 300 μM thapsigargin
Experimental: HeLa cells were treated with 2 μg/ml TM, 7 μM A23187 or 300 μM thapsigargin (in the figure, simply referred to as “Tg”) for the indicated period. Alternatively, HeLa cells which were treated separately from the above treated cells were heat-shocked at 43° C. for 1 hour and then recovered at 37° C. for the indicated period. Whole cell extracts were prepared and analyzed by immunoblotting using an anti-B03N antiserum or an antiserum specific to either GRP78 or HSP70.
HeLa cells cultured in a 60-mm dish so as to have 60% confluency were incubated in the presence of 2 μg/ml tunicamycin (TM) for the indicated period. Cells were washed with PBS, scraped with a rubber policeman, and suspended in 100 μl Laemmli's SDS sample buffer. After boiling the suspension for 5 minutes, aliquots corresponding to 1×10^5 cells were subjected to SDS-PAGE (10% gel) and analyzed by immunoblotting using an anti-ATF6 antibody, or an anti-KDEL antibody recognizing GRP78. The positions of p90ATF6 and p50ATF6 are indicated by open and closed arrows, respectively. The asterisks denote non-specific bands in which a sugar chain is not added to p90ATF6. The positions of molecular weight markers (manufactured by Bio-Rad, prestained SDS-PAGE preparations) are also shown.
By lysing 1×10^6 HeLa cells in 60 μl of 1×sample buffer (62.5 mM Tris-HCl (pH 6.8), 2% SDS, 350 mM dithiothreitol and 0.01% bromophenol blue), a whole cell extract was prepared. […] Using an ECL Western blotting detection kit (manufactured by Amersham Pharmacia Biotech), each antigen was detected.
In order to determine whether or not the appearance of p50ATF6 is associated with the intracellular UPR activity, stress-induced p50ATF6 appearance and GRP78 expression were monitored with the passage of time by immunoblotting.
In order to determine whether or not p90ATF6 is directly converted to p50ATF6 by endoplasmic reticulum stress, quantitative changes in p90ATF6, p50ATF6 and the target protein GRP78 in TM-treated HeLa cells were evaluated with the passage of time by immunoblotting using the purified ATF6 antibody.

human GRP78 promoter = assay: Overexpression of CREB-RP mutants with GRP78 promoter luciferase reporter in HeLa cells, ERSE-mediated transcription; assay type: cell-based; details: for ERSE-dependent transcriptional induction by the TM treatment: 2 μg/ml tunicamycin for 16 hours
Text: (§1) In a 96-well plate, the HeLa cells were transiently transformed with a reporter plasmid pGL-G78(−132) for expressing firefly luciferase gene under the control of a human GRP78 promoter together with pcDNA3.1 vector which has no inserts or with ATF6(1-373) expression plasmid or with CREB-RP(1-389) expression plasmid. Relative activity is indicated by the mean±standard deviation (bars), based on four independent experiments (each triplicate determinations).
as §1, with “transformed using” for “transformed with”, “with CREB-RP(308-386)” for “with ATF6(1-373) expression plasmid or with CREB-RP(1-389)”, “plasmid. Transfected cells were treated with (closed bars) or without 2 μg/ml tunicamycin (open bars) for 16 hours before luciferase activities were determined.” for “plasmid.”
In the figure, closed bars and open bars indicate the same as those in FIG. 31.
The CREB-RP(1-389) expression plasmid and a reporter plasmid resulting from ligation of the luciferase gene to downstream of the GRP78 promoter or mutant GRP78 promoter were introduced into the HeLa cells to evaluate the effect of CREB-RP(1-389) overexpression on ERSE-mediated transcriptional activation.
In the same manner as in Example 16, the effect of CREB-RP(308-386) overexpression on ERSE-mediated transcriptional activation was evaluated.
In addition, in the same manner as in Example 16, the effect of overexpression of CREB-RP(81-389) or CREB-RP(151-389) on ERSE-mediated transcriptional activation was evaluated. Here, each of CREB-RP(81-389) and CREB-RP(151-389) lacks transcription-activating domain.

Molecule	appearance of p50ATF6 relative to GRP78 induction (HeLa cells)	ERSE-dependent transcriptional induction by the TM treatment (human GRP78 promoter)	also measured
CNc1ccc2oc(C[C@H]3O[C@@]4(CC[C@H]3C)O[C@H]([C@H](C)C(=O)c3ccc[nH]3)[C@H](C)C[C@H]4C)nc2c1C(=O)O [A23187]	p50ATF6 appeared in advance of GRP78 induction	–	–
C/C=C(/C)C(=O)O[C@H]1C(C)=C2[C@H]([C@@H]1OC(=O)CCCCCCC)[C@@](C)(OC(C)=O)C[C@H](OC(=O)CCC)[C@@]1(O)[C@H]2OC(=O)[C@@]1(C)O [thapsigargin]	p50ATF6 appeared in advance of GRP78 induction	–	–
CREB-RP(308-386): CREB-RP amino acids 308th to 386th with N-terminal Met; only basic region and leucine zipper	–	strongly suppressed	–
B1	–	strongly suppressed	–
B2	–	strongly suppressed	–
B3	–	–	ERSE-mediated transcription from GRP78 promoter on overexpression (human GRP78 promoter; without ER stress, not observed with mutant ERSE): constitutively activated the transcription
